Patent US5801037A, “Expression of signal-peptide-free staphylokinases” (medac Gesellschaft fur klinische spezialpraparate mbH, priority 1991, dated 1998)

B1: SAK42D: signal-peptide-free mature native staphylokinase from S. aureus phage 42D, 136 amino acids, Seq. Id. No. 1 (protein)
chain: MSSSFDKGKYKKGDDASYFEPTGPYLMVNVTGVDGKRNELLSPRYVEFPIKPGTTLTKEKIEYYVEWALDATAYKEFRVVELDPSAKIEVTYYDKNKKKEETKSFPITEKGFVVPDLSEHIKNPGFNLITKVVIEKK
B2: SAK fragment form N14ΔSAK42D (other)
chain: MASYFEPTGPYLMVNVTGVDGKRNELLSPRYVEFPIKPGTTLTKEKIEYYVEWALDATAYKEFRVVELDPSAKIEVTYYDKNKKKEETKSFPITEKGFVVPDLSEHIKNPGFNLITKVVIEKK
B3: SAK fragment form N10ΔSAK42D (other)
chain: MKGDDASYFEPTGPYLMVNVTGVDGKRNELLSPRYVEFPIKPGTTLTKEKIEYYVEWALDATAYKEFRVVELDPSAKIEVTYYDKNKKKEETKSFPITEKGFVVPDLSEHIKNPGFNLITKVVIEKK

Tests used:
plasminogen [1] = target: plasminogen
plasminogen [2] = experiment: Determination of the specific activity of the SAK polypeptides (plasmin release from plasminogen, Chromozym-PL); format: biochemical; conditions: plasminogen in excess, activation 10 minutes at 25° C., 405 nm
Protocol: The specific activity of a SAK form is defined as that quantity of plasmin (μmol) which is released per minute by 1 μmol of this SAK polypeptide from plasminogen (used in excess).
The protein content of the pertinent SAK polypeptide-containing parent solutions is established by means of the Bio-Rad Protein Assay (Bio-Rad, Munich) using bovine serum albumin as standard protein.
The determination of the plasmin release by the SAK polypeptides is carried out in two steps:
Firstly, dilution series (1 ng to 500 ng) of the SAK polypeptides are produced in 100 mM tris (pH 8.0). A reaction mixture, consisting of 30 μl plasminogen solution 20 mg plasminogen (Fluka), dissolved in 1 ml H2 O, 150 μl 100 mM tris buffer (pH 5.0) and 10 μl activator solution (dilution series SAK polypeptides) is then prepared. This mixture is incubated for 10 minutes at 25° C. […]
Reference samples, calibration samples and the actual measurement samples (each 250 μl) are pipetted into a microtitre plate with 96 cavities (flat bottom) and the adsorption at 405 nm is measured in a multi-channel photometer.
The quantity of plasmin which is released per minute by the SAK polypeptides contained in the starting solutions (dilution samples) can be calculated from the absorption values of the measured samples, taking into account the absorption values of the plasmin calibration series and of the reference samples. […]

[3] = target: human plasminogen isolated from human plasma (human, UniProt P00747); experiment: analytical affinity chromatography on immobilized human plasminogen, 16° C., 0.1M tris-HCl pH 7.3

Molecule | specific activity in µmol plasmin/(µmol SAK × min) (µmol plasmin/(µmol SAK × min)) (plasminogen [1]) | further results
artificial allelic SAK form SAKM26C | 21.1 | –
SAK fragment form N10ΔSAK42D | 22.7 | –
mature native staphylokinase SAK42D | 16.2 | –
SAK fragment form N14ΔSAK42D | 8.1 | –
artificial allelic SAK form SAKM26L | 36.6 | –
B1 | – | specific activity (plasminogen [2]): 16.2 μmol plasmin/(μmol SAK × min)
B2 | – | Kd [3]: 4.4 µM
B3 | – | Kd [3]: 2.21 µM
